Source: patent publication US20260231968A1, “AN ECO-FRIENDLY, SUSTAINABLE FOOD PRESERVATIVE” (priority 2023, published 2026)

Assays:
Assay type in all cases: cell-based
Aspergillus flavus = experiment: Dose-response growth assay in 96 well plates, A. flavus in RPMI-MOPS; conditions: A. flavus, 5,000 spores, absorbance 600 nm
Experimental: A. flavus A11 spores were seeded on 10 cm plates of YAG-agarose for 3-4 days in a humidified incubator at 30° C. After sporulation, fresh spores were collected with 5 ml DDW+0.2% Tween. Spores were then centrifuged at room temperatures (5 min, 4,000 RPM), and suspended in 5 ml DDW. The suspension was termed “A. flavus fresh stock”.
A. flavus fresh stock was diluted ×1000 using DDW, and the spores were counted using a cytometer to determine the stock spores' concentration. A. flavus fresh stock was used for one week after spore production before disposal.
(§1) RPMI-MOPS (RPMI Powder, 165 mM MOPS, and Pen/Strep solution (x100)) was inoculated with either 50,000 spores/ml of A. flavus, or 1 colony/10 ml of C. albicans. The inoculated RPMI-MOPS was poured into a Nunclone™ coated 96-well plate (100 μl per well), with the different treatments and controls. The 96-well plate was then incubated in a shaker/incubator plate-reader at 30° C. where the absorbance (600 nm) was monitored and measured every 10 minutes.
In order to evaluate the ability of recombinant His-psoriasin to inhibit the growth of Aspergillus flavus, 5,000 spores were incubated in a RPMI-MPS medium with variable concentrations of psoriasin added to each well. Fungi growth was monitored using an absorbance plate reader every 10 minutes at 600 nm.

Candida albicans [1] = experiment: Dose-response growth assay in 96 well plates, C. albicans in RPMI-MOPS (also zinc and pH variation)
Experimental: C. albicans were seeded on 10 cm plates of YAG-agarose for 1-2 days in a humidified incubator at 30° C. C. albicans colonies were used for 48 hours after their appearance before disposal.
as §1
In Example 4, several ZnCl2 concentrations were added to 1 μM of His-psoriasin.
In Example 5, RPMI-MOPS was titrated to the different pH levels using 1M NaOH solution (RMPI-MOPS, initial pH ~4).
In order to evaluate the ability of recombinant His-psoriasin to inhibit the growth of Candida albicans, a single colony/10 ml was incubated in a RPMI-MOPS medium with variable concentrations of psoriasin added to each well. Fungi growth was monitored using an absorbance plate reader every 10 minutes at 600 nm. No apparent growth was measured in psoriasin concentrations higher than 300 nM for C. albicans (FIG. 2).
In order to test the effect of zinc ions on the ability of psoriasin to inhibit fungal growth, Candida albicans was incubated in a RPMI-MOPS medium in the presence of 1 μM psoriasin with variable concentrations of ZnCl2.
Candida albicans was incubated in a RPMI-MOPS medium in the presence of 10 μM His-psoriasin at variable pHs. […] Accordingly, effective anti-fungal activity of His-psoriasin can be obtained also at pH levels that are lower than pH=8.

[2] = test system: microbial sample isolated from soy protein; experiment: Growth of microbes isolated from soy protein in LB or RPMI
Experimental: Psoriasin was applied to a microbial sample isolated from soy protein that was incubated in RPMI or LB medium, with no addition of external antibiotics. Liquid RPMI 1640 (5 ml) medium w/o Pen/strep antibiotics were inoculated with a colony that grew on an LB agarose plate from Example 8. The inoculated medium was incubated in a 37° C. shaker incubator overnight. Only the medium without antibiotics became turbid as a result of the endogenic bacterial growth. The isolated bacteria were used in dose-response experiments in RPMI 1640 and LB. Microbial growth was monitored in a 96-well plate by reading the absorbance at 600 nm every 10 minutes while adjusting the temperature to 37° C. In the rich LB medium, psoriasin was effective at a concentration of 50 μM (FIG. 9A). In RPMI, psoriasin was effective in concentrations below 1 μM (FIG. 9B).

[3] = test system: microbial load of hummus salad; experiment: Shelf life of hummus salad at pH 4.8; conditions: pH 4.8, stored at 6° C, psoriasin 0.2%
Experimental: The ability of psoriasin to extend the shelf life of a hummus salad preparation was examined. A commercially-available preparation that is acidified at pH 4.8 and to which 0.2% potassium sorbate was added in order to ensure food safety was compared to a hummus salad at the same pH with and without the addition of psoriasin at the same concentration. No antibiotics were added and there was no addition of mold, yeast or bacteria to the preparation.
Samples were stored at 6° C. and total CFU counts were performed on days 0, 12, 26, and 62 by plating on LB and PDA agar petri dishes. Photos (i.e., visual inspection) were taken every 7 days. As is evident from FIG. 14A, psoriasin extended the shelf life of the hummus salad at pH 4.8 by 2 months.

[4] = Thermal stability of psoriasin, microbial growth inhibition test (CLSI M27/M38); conditions: stock 36 mg/mL in 1×PBS, 4° C to 84° C for one hour
Experimental: In order to assess its thermal stability, psoriasin stock (36 mg/mL in 1×PBS) was subjected to various temperatures ranging from 4° C. to 84° C. for one hour. The thermally treated psoriasin was subsequently used in a microbial growth inhibition test based on standardized protocols M27 (yeasts) and M38 (filamentous fungi) of the Clinical and Laboratory Standards Institute.

Candida albicans [5] = experiment: Microbial Growth Inhibition Test, broth microdilution optical method; conditions: RPMI-MOPS
Experimental: (§2) The IC90 of psoriasin for several microorganisms was determined by Microbial Growth Inhibition Tests. The tests were performed using the Broth Microdilution Optical Method based on standardized protocols M27 (yeasts) and M38 (filamentous fungi) of the Clinical and Laboratory Standards Institute. […] MOPS, LB (Luria-Bertani), and TSB ([…]) medium types were used, depending on the species being tested. The absorbance was calibrated to each species, and was measured between 450 nm to 650 nm.

Enterobacter cloacae = experiment: as above; conditions: TSB
Experimental: as §2

Escherichia coli = experiment: as above; conditions: LB, TSB
Experimental: as §2

Lactobacillus saeki = experiment: as above; conditions: TSB
Experimental: as §2

Lactococcus lactis = experiment: as above; conditions: TSB
Experimental: as §2

Listeria monocytogenes = experiment: as above; conditions: LB, TSB
Experimental: as §2

B1: psoriasin: Recombinant human psoriasin (S100a7) containing a histidine tag, amino acid sequence SEQ ID NO: 11, expression vector pET-28a (protein, listed as Homo sapiens)
chain: MSNTQAERSIIGMIDMFHKYTRRDDKIEKPSLLTMMKENFPNFLSACDKKGTNYLADVFEKKDKNEDKKIDFSEFLSLLGDIATDYHKQSHGAAPCSGGSQ
psoriasin concentration above which no apparent growth was measured (Aspergillus flavus): higher than 375 nM | C. albicans proliferation at variable pHs (Candida albicans [1]; 10 μM His-psoriasin, RPMI-MOPS): prevent C. albicans proliferation at all the tested pH levels | psoriasin concentration above which no apparent growth was measured (Candida albicans [1]; C. albicans single colony/10 ml, RPMI-MOPS, absorbance 600 nm): higher than 300 nM | ZnCl2 concentration above which the fungi retained their full ability to grow (Candida albicans [1]; in the presence of 1 μM psoriasin): above 1.2 μM | effective concentration against isolated microbes ([2]; RPMI 1640, 37° C): below 1 μM | effective concentration against isolated microbes ([2]; rich LB medium, 37° C): 50 µM | extension of shelf life of hummus salad [3]: 2 months | inhibitory properties after thermal treatment [4]: maintained its inhibitory properties | IC90 (Candida albicans [5]): 500 nM | IC90 (Enterobacter cloacae): 28 µM | IC90 (Escherichia coli): 100 µM | IC90 (Lactobacillus saeki): 50 µM | IC90 (Lactococcus lactis): 45 µM | IC90 (Listeria monocytogenes): 75 µM
